The values that follow come from paper doi:10.1101/2024.07.30.605930 (bioRxiv, 2024).

B1: FliF(Δ165–167) (natural protein, Salmonella enterica serovar Typhimurium)
chain: MSATASTATQPKPLEWLNRLRANPRIPLIVAGSAAVAIVVAMVLWAKTPDYRTLFSNLSDQDGGAIVAQLTQMNIPYRFANGSGAIEVPADKVHELRLRLAQQGLPKGGAVGFELLDQEKFGISQFSEQVNYQRALEGELARTIETLGPVKSARVHLAMPKPSLEQKSPSASVTVTLEPGRALDEGQISAVVHLVSSAVAGLPPGNVTLVDQSGHLLTQSNTSGRDLNDAQLKFANDVESRIQRRIEAILSPIVGNGNVHAQVTAQLDFANKEQTEEHYSPNGDASKATLRSRQLNISEQVGAGYPGGVPGALSNQPAPPNEAPIATPPTNQQNAQNTPQTSTSTNSNSAGPRSTQRNETSNYEVDRTIRHTKMNVGDIERLSVAVVVNYKTLADGKPLPLTADQMKQIEDLTREAMGFSDKRGDTLNVVNSPFSAVDNTGGELPFWQQQSFIDQLLAAGRWLLVLVVAWILWRKAVRPQLTRRVEEAKAAQEQAQVRQETEEAVEVRLSKDEQLQQRRANQRLGAEVMSQRIREMSDNDPRVVALVIRQWMSNDHE
B2: FliF(G217A) (natural protein, Salmonella enterica serovar Typhimurium)
chain: MSATASTATQPKPLEWLNRLRANPRIPLIVAGSAAVAIVVAMVLWAKTPDYRTLFSNLSDQDGGAIVAQLTQMNIPYRFANGSGAIEVPADKVHELRLRLAQQGLPKGGAVGFELLDQEKFGISQFSEQVNYQRALEGELARTIETLGPVKSARVHLAMPKPSLFVREQKSPSASVTVTLEPGRALDEGQISAVVHLVSSAVAGLPPGNVTLVDQSAHLLTQSNTSGRDLNDAQLKFANDVESRIQRRIEAILSPIVGNGNVHAQVTAQLDFANKEQTEEHYSPNGDASKATLRSRQLNISEQVGAGYPGGVPGALSNQPAPPNEAPIATPPTNQQNAQNTPQTSTSTNSNSAGPRSTQRNETSNYEVDRTIRHTKMNVGDIERLSVAVVVNYKTLADGKPLPLTADQMKQIEDLTREAMGFSDKRGDTLNVVNSPFSAVDNTGGELPFWQQQSFIDQLLAAGRWLLVLVVAWILWRKAVRPQLTRRVEEAKAAQEQAQVRQETEEAVEVRLSKDEQLQQRRANQRLGAEVMSQRIREMSDNDPRVVALVIRQWMSNDHE
B3: FliF(G217P) (natural protein, Salmonella enterica serovar Typhimurium)
chain: B2 chain with A217P
B4: FliF(G217W) (natural protein, Salmonella enterica serovar Typhimurium)
chain: B2 chain with A217W
B5: FliF(Δ214–220) (natural protein, Salmonella enterica serovar Typhimurium)
chain: MSATASTATQPKPLEWLNRLRANPRIPLIVAGSAAVAIVVAMVLWAKTPDYRTLFSNLSDQDGGAIVAQLTQMNIPYRFANGSGAIEVPADKVHELRLRLAQQGLPKGGAVGFELLDQEKFGISQFSEQVNYQRALEGELARTIETLGPVKSARVHLAMPKPSLFVREQKSPSASVTVTLEPGRALDEGQISAVVHLVSSAVAGLPPGNVTLVTQSNTSGRDLNDAQLKFANDVESRIQRRIEAILSPIVGNGNVHAQVTAQLDFANKEQTEEHYSPNGDASKATLRSRQLNISEQVGAGYPGGVPGALSNQPAPPNEAPIATPPTNQQNAQNTPQTSTSTNSNSAGPRSTQRNETSNYEVDRTIRHTKMNVGDIERLSVAVVVNYKTLADGKPLPLTADQMKQIEDLTREAMGFSDKRGDTLNVVNSPFSAVDNTGGELPFWQQQSFIDQLLAAGRWLLVLVVAWILWRKAVRPQLTRRVEEAKAAQEQAQVRQETEEAVEVRLSKDEQLQQRRANQRLGAEVMSQRIREMSDNDPRVVALVIRQWMSNDHE
B6: FliFΔ(221–227) (natural protein, Salmonella enterica serovar Typhimurium)
chain: B5 chain with T214D, N217G, T218H, S219L, G220L
B7: FliF (natural protein, Salmonella enterica serovar Typhimurium, UniProt P15928 1-560, looked up)
chain: B2 chain with A217G

In general, stoichiometry N refers to the number of molecules, sites or subunits per partner or assembly.

Substitutions are numbered along the chain they refer to. Names and notes keep the numbering of the source. Values joined by “and” are separate entries in the source; they are usually repeats but may differ in a detail not shown here. Equal entries are not always repeated.

The first data set deals with the molecule itself. The experiment in a line: negative-stain EM.
As for B1, the binding result is recorded as “binds”. Turning to B2, the binding result was “binds”. With B3, the binding result was “binds”.

Consider B4, for which the binding result is reported as “binds”. For B5, the binding result is on record as “binds”.

For B6, the binding result is “binds”.

A further data set concerns the molecule itself. The data set can be described thus: cryo-EM structure.
As to B7, the “stoichiometry N” value is 33 and 34.
